Experimental data: IntAct's records for PubMed 22491013

B1: Low-density lipoprotein receptor-related protein 6 (Homo sapiens), O75581 (parent)
chain: MGAVLRSLLACSFCVLLRAAPLLLYANRRDLRLVDATNGKENATIVVGGLEDAAAVDFVFSHGLIYWSDVSEEAIKRTEFNKTESVQNVVVSGLLSPDGLACDWLGEKLYWTDSETNRIEVSNLDGSLRKVLFWQELDQPRAIALDPSSGFMYWTDWGEVPKIERAGMDGSSRFIIINSEIYWPNGLTLDYEEQKLYWADAKLNFIHKSNLDGTNRQAVVKGSLPHPFALTLFEDILYWTDWSTHSILACNKYTGEGLREIHSDIFSPMDIHAFSQQRQPNATNPCGIDNGGCSHLCLMSPVKPFYQCACPTGVKLLENGKTCKDGATELLLLARRTDLRRISLDTPDFTDIVLQLEDIRHAIAIDYDPVEGYIYWTDDEVRAIRRSFIDGSGSQFVVTAQIAHPDGIAVDWVARNLYWTDTGTDRIEVTRLNGTMRKILISEDLEEPRAIVLDPMVGYMYWTDWGEIPKIERAALDGSDRVVLVNTSLGWPNGLALDYDEGKIYWGDAKTDKIEVMNTDGTGRRVLVEDKIPHIFGFTLLGDYVYWTDWQRRSIERVHKRSAEREVIIDQLPDLMGLKATNVHRVIGSNPCAEENGGCSHLCLYRPQGLRCACPIGFELISDMKTCIVPEAFLLFSRRADIRRISLETNNNNVAIPLTGVKEASALDFDVTDNRIYWTDISLKTISRAFMNGSALEHVVEFGLDYPEGMAVDWLGKNLYWADTGTNRIEVSKLDGQHRQVLVWKDLDSPRALALDPAEGFMYWTEWGGKPKIDRAAMDGSERTTLVPNVGRANGLTIDYAKRRLYWTDLDTNLIESSNMLGLNREVIADDLPHPFGLTQYQDYIYWTDWSRRSIERANKTSGQNRTIIQGHLDYVMDILVFHSSRQSGWNECASSNGHCSHLCLAVPVGGFVCGCPAHYSLNADNRTCSAPTTFLLFSQKSAINRMVIDEQQSPDIILPIHSLRNVRAIDYDPLDKQLYWIDSRQNMIRKAQEDGSQGFTVVVSSVPSQNLEIQPYDLSIDIYSRYIYWTCEATNVINVTRLDGRSVGVVLKGEQDRPRAVVVNPEKGYMYFTNLQERSPKIERAALDGTEREVLFFSGLSKPIALALDSRLGKLFWADSDLRRIESSDLSGANRIVLEDSNILQPVGLTVFENWLYWIDKQQQMIEKIDMTGREGRTKVQARIAQLSDIHAVKELNLQEYRQHPCAQDNGGCSHICLVKGDGTTRCSCPMHLVLLQDELSCGEPPTCSPQQFTCFTGEIDCIPVAWRCDGFTECEDHSDELNCPVCSESQFQCASGQCIDGALRCNGDANCQDKSDEKNCEVLCLIDQFRCANGQCIGKHKKCDHNVDCSDKSDELDCYPTEEPAPQATNTVGSVIGVIVTIFVSGTVYFICQRMLCPRMKGDGETMTNDYVVHGPASVPLGYVPHPSSLSGSLPGMSRGKSMISSLSIMGGSSGPPYDRAHVTGASSSSSSSTKGTYFPAILNPPPSPATERSHYTMEFGYSSNSPSTHRSYSYRPYSYRHFAPPTTPCSTDVCDSDYAPSRRMTSVATAKGYTSDLNYDSEPVPPPPTPRSQYLSAEENYESCPPSPYTERSYSHHLYPPPPSPCTDSS
partner: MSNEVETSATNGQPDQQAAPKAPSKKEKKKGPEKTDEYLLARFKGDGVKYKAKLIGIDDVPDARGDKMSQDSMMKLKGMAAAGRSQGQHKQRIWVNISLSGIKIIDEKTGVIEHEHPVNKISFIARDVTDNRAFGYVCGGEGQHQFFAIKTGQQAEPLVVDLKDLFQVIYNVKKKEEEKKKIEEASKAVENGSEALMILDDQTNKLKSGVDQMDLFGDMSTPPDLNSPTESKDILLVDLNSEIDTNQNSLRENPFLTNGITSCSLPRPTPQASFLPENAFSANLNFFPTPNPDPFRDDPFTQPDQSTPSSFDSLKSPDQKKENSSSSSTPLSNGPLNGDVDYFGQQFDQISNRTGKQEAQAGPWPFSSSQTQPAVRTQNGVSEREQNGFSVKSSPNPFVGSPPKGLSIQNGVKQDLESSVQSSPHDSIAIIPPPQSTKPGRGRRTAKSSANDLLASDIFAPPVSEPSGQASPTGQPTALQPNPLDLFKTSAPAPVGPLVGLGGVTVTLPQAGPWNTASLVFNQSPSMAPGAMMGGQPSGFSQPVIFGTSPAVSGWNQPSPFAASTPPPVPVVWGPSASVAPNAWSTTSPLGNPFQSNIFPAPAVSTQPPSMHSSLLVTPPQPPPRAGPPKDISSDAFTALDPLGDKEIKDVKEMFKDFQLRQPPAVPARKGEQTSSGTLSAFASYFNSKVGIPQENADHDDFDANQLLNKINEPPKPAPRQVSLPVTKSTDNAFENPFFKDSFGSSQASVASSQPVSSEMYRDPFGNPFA

Variants of: B1
Conditions: with dab2_human DAB2, P98082

Row | Variant | effect of a mutation on the interaction
1 | S1579A | disrupting interaction

Variants of: B1
Conditions: with dab2_human DAB2, P98082
Remark: another data set of the same source

Row | Variant | effect of a mutation on the interaction
2 | T1572A | decreasing interaction

Variants of: B1
Conditions: with dab2_human DAB2, P98082
Remark: another data set of the same source

Row | Variant | effect of a mutation on the interaction
3 | S1575A | decreasing interaction

Variants of: B1
Conditions: with dab2_human DAB2, P98082
Remark: another data set of the same source

Row | Variant | effect of a mutation on the interaction
4 | S1586A | decreasing interaction

Variants of: B1
Conditions: with dab2_human DAB2, P98082
Remark: another data set of the same source

Row | Variant | effect of a mutation on the interaction
5 | S1590A | decreasing interaction

Variants of: B1
Conditions: with dab2_human DAB2, P98082
Remark: another data set of the same source

Row | Variant | effect of a mutation on the interaction
6 | S1596A | decreasing interaction

Variants of: B1
Conditions: with dab2_human DAB2, P98082
Remark: another data set of the same source

Row | Variant | effect of a mutation on the interaction
7 | S1607A | decreasing interaction

Variants of: B1
Conditions: with dab2_human DAB2, P98082
Remark: another data set of the same source

Row | Variant | effect of a mutation on the interaction
8 | Y1577A | decreasing interaction

Variants of: B1
Conditions: with dab2_human DAB2, P98082
Remark: another data set of the same source

Row | Variant | effect of a mutation on the interaction
9 | Y1584A | decreasing interaction

Variants of: B1
Conditions: with dab2_human DAB2, P98082
Remark: another data set of the same source

Row | Variant | effect of a mutation on the interaction
10 | Y1592A | decreasing interaction

Variants of: B1
Conditions: with dab2_human DAB2, P98082
Remark: another data set of the same source

Row | Variant | effect of a mutation on the interaction
11 | T1593A | decreasing interaction

Variants of: B1
Conditions: with dab2_human DAB2, P98082
Remark: another data set of the same source

Row | Variant | effect of a mutation on the interaction
12 | S1598A | increasing interaction

Variants of: B1
Conditions: with dab2_human DAB2, P98082
Remark: another data set of the same source

Row | Variant | effect of a mutation on the interaction
13 | S1613A | increasing interaction

Variants of: B1
Conditions: with dab2_human DAB2, P98082
Remark: another data set of the same source

Row | Variant | effect of a mutation on the interaction
14 | T1610A | decreasing interaction
